This is an account of results in FireProtDB.

The conditions of the series: whole UniProt chain shown.
[1] abbreviates: Rattus norvegicus, pH 7, 25 °C, Urea, CD, Sodium phosphate 25 mM, NaCl 75 mM, reversible: yes.
Setting [2] is: Rattus norvegicus, pH 7, 25 °C, Urea, Fluorescence, Sodium phosphate 25 mM, NaCl 75 mM, reversible: yes.
[3] abbreviates: Rattus norvegicus, pH 7, 27 °C, Urea, CD, Phosphate 10 mM.
The mark [4] stands for this setting: Rattus norvegicus, pH 7, 27 °C, Urea, Magnetic Relaxation Dispersion, Phosphate 10 mM.
[5] abbreviates: Rattus norvegicus, pH 7.2, 20 °C, GdnHCl, Fluorescence, Potassium phosphate 20 mM, reversible: yes.
Setting [6] is: Rattus norvegicus, pH 7.4, 20 °C, GdnHCl, CD, Potassium phosphate 20 mM, reversible: yes.
The mark [7] stands for this setting: Rattus norvegicus, pH 7.4, 20 °C, GdnHCl, Fluorescence, Potassium phosphate 20 mM, reversible: yes.
The mark [8] stands for this setting: Rattus norvegicus, pH 8, 25 °C, Urea, CD, NaH2PO4 25 mM/, NaCl 75 mM, reversible: Yes.
Where [9] appears, read: Rattus norvegicus, pH 8, 25 °C, Urea, Fluorescence, NaH2PO4 25 mM/, NaCl 75 mM, reversible: Yes.
[10] abbreviates: Rattus norvegicus, pH 9.6, 20 °C, GdnHCl, Fluorescence, Sodium pyrophosphate 20 mM, reversible: yes.
Setting [11] is: Pyrococcus furiosus (strain ATCC 43587 / DSM 3638 / JCM 8422 / Vc1), pH 7, 40 °C, GdnHCl, CD, Tris-HCl 20 mM, reversible: yes.
[12] abbreviates: Pyrococcus furiosus (strain ATCC 43587 / DSM 3638 / JCM 8422 / Vc1), pH 7, 60 °C, GdnHCl, CD, Tris-HCl 20 mM, reversible: yes.
[13] abbreviates: Rattus norvegicus, pH 7.5, Thermal, CD, phosphate 10 mM, NaF 100 mM, reversible: yes.

B1: Fatty acid-binding protein, brain wild type, P55051 (protein)
chain: MVDAFCATWKLTDSQNFDEYMKALGVGFATRQVGNVTKPTVIISQEGGKVVIRTQCTFKNTEISFQLGEEFEETSIDDRNCKSVIRLDGDKLIHVQKWDGKETNCVREIKDGKMVVTLTFGDVVAVRCYEKA
Consider B1, for which the denaturant m value reads like this: under setting [1], 1.04 kcal/mol/M; under setting [2], 1.13 kcal/mol/M; under setting [3], 1 kcal/mol/M; under setting [4], 0.88 kcal/mol/M; under setting [6], 5.33 kcal/mol/M; under setting [7], 3.82 kcal/mol/M. The “denaturant midpoint (higher = more stable)” value (“denaturant midpoint” below) by setting is: under setting [1], 4.1 M; under setting [2], 4.24 M; under setting [3], 5.1 M; under setting [4], 6.5 M; under setting [5], 1.36 M; under setting [6], 1.32 M. The “denaturant midpoint” value by setting is: under setting [7], 1.36 M; under setting [10], 1.41 M. For the same protein, the unfolding free energy by setting is: under setting [1], 4.28 kcal/mol; under setting [2], 4.79 kcal/mol; under setting [5], 5.22 kcal/mol; under setting [6], 7.06 kcal/mol; under setting [7], 5.22 kcal/mol; under setting [8], 5.86 kcal/mol. The unfolding free energy amounted to 5.28 kcal/mol under setting [9] and 5.59 kcal/mol under setting [10].

B2: Cytochrome b5 wild type, P00173 (protein)
chain: MAEQSDKDVKYYTLEEIQKHKDSKSTWVILHHKVYDLTKFLEEHPGGEEVLREQAGGDATENFEDVGHSTDARELSKTYIIGELHPDDRSKIAKPSETLITTVESNSSWWTNWVIPAISALVVALMYRLYMAED
As for B2, the Tm (commonly the temperature at which the thermal transition is half complete) (Rattus norvegicus, pH 7, Thermal, UV spectroscopy, Sodium phosphate 50 mM, reversible: Yes) came to 93.1 °C.

B3: Pyrrolidone-carboxylate peptidase wild type, O73944 (protein)
chain: MKVLVTGFEPFGGEKINPTERIAKDLDGIKIGDAQVFGRVLPVVFGKAKEVLEKTLEEIKPDIAIHVGLAPGRSAISIERIAVNAIDARIPDNEGKKIEDEPIVPGAPTAYFSTLPIKKIMKKLHERGIPAYISNSAGLYLCNYVMYLSLHHSATKGYPKMSGFIHVPYIPEQIIDKIGKGQVPPSMCYEMELEAVKVAIEVALEELL
In the case of B3, under setting [11], the denaturant m value worked out at 4.66 kcal/mol/M, the “denaturant midpoint” value was 0.4 M and the unfolding free energy was 1.82 kcal/mol. Besides, under setting [12], the denaturant m value came out at 4.13 kcal/mol/M, the “denaturant midpoint” value amounted to 3.2 M and the unfolding free energy came to 13 kcal/mol.

B4: Parvalbumin alpha wild type, P02625 (protein)
chain: MSMTDLLSAEDIKKAIGAFTAADSFDHKKFFQMVGLKKKSADDVKKVFHILDKDKSGFIEEDELGSILKGFSSDARDLSAKETKTLMAAGDKDGDGKIGVEEFSTLVAES
For B4, for the setting “Rattus norvegicus, pH 7.74, 30 °C, Thermal, CD, piperazine 10 mM, KCl 200 mM”, the unfolding free energy turned out to be 0.7 kcal/mol. Also, the Tm (Rattus norvegicus, pH 7.74, Thermal, CD, piperazine 10 mM, KCl 200 mM) turned out to be 35 °C.

B5: Cytochrome c2 wild type, P00094 (protein)
chain: MKISLTAATVAALVLAAPAFAGDAAKGEKEFNKCKTCHSIIAPDGTEIVKGAKTGPNLYGVVGRTAGTYPEFKYKDSIVALGASGFAWTEEDIATYVKDPGAFLKEKLDDKKAKTGMAFKLAKGGEDVAAYLASVVK
B5: for the setting “Rhodobacter capsulatus (strain ATCC BAA-309 / NBRC 16581 / SB1003), pH 7.5, 30 °C, GdnHCl, CD, Tris 20 mM”, the “denaturant midpoint” value worked out at 1.54 M.

B6: Homeobox protein Nkx-2.1 wild type, P23441 (protein)
chain: MSMSPKHTTPFSVSDILSPLEESYKKVGMEGGGLGAPLAAYRQGQAAPPAAAMQQHAVGHHGAVTAAYHMTAAGVPQLSHSAVGGYCNGNLGNMSELPPYQDTMRNSASGPGWYGANPDPRFPAISRFMGPASGMNMSGMGGLGSLGDVSKNMAPLPSAPRRKRRVLFSQAQVYELERRFKQQKYLSAPEREHLASMIHLTPTQVKIWFQNHRYKMKRQAKDKAAQQQLQQDSGGGGGGGGGAGCPQQQQAQQQSPRRVAVPVLVKDGKPCQAGAPAPGAASLQGHAQQQAQQQAQAAQAAAAAISVGSGGAGLGAHPGHQPGSAGQSPDLAHHAASPAALQGQVSSLSHLNSSGSDYGAMSCSTLLYGRTW
Take B6: the unfolding free energy (Rattus norvegicus, pH 7.5, 25 °C, Urea, CD, phosphate 10 mM, NaF 100 mM, reversible: yes) was 1.26 kcal/mol. Under setting [13], the Tm was found to be 42.8 °C and the unfolding free energy was 1.44 kcal/mol.

B7: Gastrotropin wild type, P80020 (protein)
chain: MAFTGKYEFESEKNYDEFMKRLGLPDEVIERGRNFKIITEVQQDGENFTWSQSYSGGNIMSNKFTIGKECEMQTMGGKKFKATVKMEGGKVVADFPNYHQTSEVVGDKLVEISTIGDVTYERVSKRVA
B7: the unfolding free energy runs as follows: under setting [8], 4.39 kcal/mol; under setting [9], 4.71 kcal/mol.

B8: Cytochrome b5 type B wild type, P04166 (protein)
chain: MATPEASGSGRNGQGSDPAVTYYRLEEVAKRNTAEETWMVIHGRVYDITRFLSEHPGGEEVLLEQAGADATESFEDVGHSPDAREMLKQYYIGDVHPNDLKPKDGDKDPSKNNSCQSSWAYWIVPIVGAILIGFLYRHFWADSKSS
Regarding B8, the “denaturant midpoint” value (Rattus norvegicus, pH 7, 25 °C, GdmSCN, UV/visible spectrophotometer, MOPS 30mM) came out at 2.04 M. Further, where the note is “Rattus norvegicus, pH 7, Thermal, UV/visible spectrophotometer, Potassium phosphate 50mM”, the Tm was 85.5 °C.
